Data set [1] has as its target T1, Srs2ΔC (Srs2 1-898) (Saccharomyces cerevisiae? (budding …, UniProt P12954 1-898)). Description: competition; FITC-3' overhang competitor releasing 50% of Cy5-ssDNA (N1) from 150 nM Srs2ΔC; 30 mM Tris pH 7.5, 1 mM DTT, 0.1 mg/ml BSA, 100 mM KCl, 3 nM DNA, 30 °C 10 min; 7% native PAGE in 0.5x TBE. As to conditions: protein: recombinant; tags: His9 (pull-down section says His6); label: fluorescein (FITC), end label.

Data set [2] concerns the target T1, Srs2ΔC (Srs2 1-898). Description: EMSA; much higher affinity than other substrates; 3 nM DNA; 30 mM Tris pH 7.5, 1 mM DTT, 0.1 mg/ml BSA, 100 mM KCl, 3 nM DNA, 30 °C 10 min; 7% native PAGE in 0.5x TBE. As to conditions: protein: recombinant, tags: His9 (pull-down section says His6), label: fluorescent dye (fluorescein or Cy5), end label. In general terms: In EMSA bound probe runs differently from free probe, usually more slowly.

Data set [3] deals with T1, Srs2ΔC (Srs2 1-898). As to the kind of experiment: competition; FITC-ssDNA competitor against Cy5-ssDNA with 150 nM Srs2ΔC; value derived from text: 3 times higher than the 5 nM of 3' overhang; 30 mM Tris pH 7.5, 1 mM DTT, 0.1 mg/ml BSA, 100 mM KCl, 3 nM DNA, 30 °C 10 min; 7% native PAGE in 0.5x TBE. As to conditions: protein: recombinant; tags: His9 (pull-down section says His6); label: fluorescein or Cy5, end label; single strand.

A word on the IC50: it is the concentration that inhibits the measured activity by half.

T1 sequence (P12954 1-898, stated change not applied): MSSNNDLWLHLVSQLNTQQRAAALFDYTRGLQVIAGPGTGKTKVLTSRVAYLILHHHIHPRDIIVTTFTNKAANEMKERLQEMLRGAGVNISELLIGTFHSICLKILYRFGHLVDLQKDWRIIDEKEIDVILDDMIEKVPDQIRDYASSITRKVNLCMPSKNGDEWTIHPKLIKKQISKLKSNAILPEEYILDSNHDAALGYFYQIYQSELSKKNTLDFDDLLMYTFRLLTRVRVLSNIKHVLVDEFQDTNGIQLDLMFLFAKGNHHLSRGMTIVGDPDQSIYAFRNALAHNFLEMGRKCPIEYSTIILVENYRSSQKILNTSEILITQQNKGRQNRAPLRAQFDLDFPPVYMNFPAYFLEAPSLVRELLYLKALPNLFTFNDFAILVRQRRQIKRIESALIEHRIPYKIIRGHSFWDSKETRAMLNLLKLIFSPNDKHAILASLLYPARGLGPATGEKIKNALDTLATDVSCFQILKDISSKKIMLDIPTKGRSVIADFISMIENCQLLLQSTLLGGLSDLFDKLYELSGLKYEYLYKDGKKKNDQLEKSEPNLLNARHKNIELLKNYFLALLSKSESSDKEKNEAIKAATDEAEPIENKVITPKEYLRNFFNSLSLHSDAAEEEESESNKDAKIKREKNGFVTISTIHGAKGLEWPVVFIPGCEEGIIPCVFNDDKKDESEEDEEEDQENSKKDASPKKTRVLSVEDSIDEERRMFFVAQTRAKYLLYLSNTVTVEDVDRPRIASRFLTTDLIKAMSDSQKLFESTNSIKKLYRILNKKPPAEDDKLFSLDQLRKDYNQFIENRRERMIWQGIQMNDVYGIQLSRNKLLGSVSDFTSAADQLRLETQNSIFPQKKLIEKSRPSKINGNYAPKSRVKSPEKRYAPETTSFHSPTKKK

B1: 3' overhang (mixed)
DNA 1: AGCTACCATGCCTGCACGAATTAAGCAATTCGTAATCATGGTCATAGCT
DNA 2: AATTCGTGCAGGCATGGTAGCT
For B1, the IC50 in the data set with Srs2ΔC (Srs2 1-898) [1] is around 5 nM.

B2: 5' flap (fork with leading strand) (structured_DNA)
DNA 1: B1 DNA 1
DNA 2: AGCTATGACCATGATTACGAATTGCTT
DNA 3: GATGTCAAGCAGTCCTAAGGAATTCGTGCAGGCATGGTAGCT
On to B2, for which the binding result with Srs2ΔC (Srs2 1-898) [2] (5' flap) was “binds”.

B3: 5' overhang (mixed)
DNA 1: B1 DNA 1
DNA 2: AGCTATGACCATGATTACGAATTGCTT
Turning to B3, the binding result with Srs2ΔC (Srs2 1-898) [2] is “binds”.

As for AGCTACCATGCCTGCACGAATTAAGCAATTCGTAATCATGGTCATAGCT (ssDNA) [ssDNA], the IC50 with Srs2ΔC (Srs2 1-898) [3] was around 15 nM.

These data come from PMC3484393, “Unwinding of synthetic replication and recombination substrates by Srs2”.
